Data as given in patent publication US20240343811A1 (SHANDONG SIMCERE BIOPHARMACUTICAL, published 2024).

T1: human CD16b (NA2), full length, on FlpinCHO cells (human, UniProt O75015 17-200)
T1 construct: also called FlpinCHO-human CD16b (NA2)
T1 chain: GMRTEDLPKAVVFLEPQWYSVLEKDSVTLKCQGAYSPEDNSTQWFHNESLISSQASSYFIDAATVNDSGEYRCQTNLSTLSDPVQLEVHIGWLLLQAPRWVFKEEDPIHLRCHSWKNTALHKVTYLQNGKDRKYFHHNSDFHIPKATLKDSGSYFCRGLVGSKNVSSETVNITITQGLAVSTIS

T2: human CD16b (NA1), full length, on FlpinCHO cells (human, UniProt O75015 17-200)
T2 construct: also called FlpinCHO-human CD16b (NA1)
T2 chain: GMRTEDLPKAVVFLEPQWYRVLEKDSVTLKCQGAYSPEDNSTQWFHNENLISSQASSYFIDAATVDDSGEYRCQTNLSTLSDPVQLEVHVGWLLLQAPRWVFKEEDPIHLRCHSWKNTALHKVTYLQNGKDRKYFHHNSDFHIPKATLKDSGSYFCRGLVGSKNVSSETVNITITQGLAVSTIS

B1: VHH06-04 humanized VHH-Fc antibody (Fc fusion)
chain: EVQLVESGGGVVQPGGSLRLSCAASGSTWTTYAVRWYRQAPGKQREWVAFISVDGSTNYPDSVKGRFTISRDNSKNTVYLQMNSLRAEDTADYICRVGGQYWGQGTMVTVSSEPKSSDKTHTCPPCPAPEEFGGPSVFLFPPKPKDTLMISRTPEVTCVVVAVSHEDPEVKFNWYVDGVEVHNAKTKPREEQYNSTYRVVSVLTVLHQDWLNGKEYKCKVSNKALPAPIEKTISKAKGQPREPQVYTLPPSREEMTKNQVSLTCLVKGFYPSDIAVEWESNGQPENNYKTTPPVLDSDGSFFLYSKLTVDKSRWQQGNVFSCSVMHEALHNHYTQKSLSLSPGK
B2: VHH06-05 humanized VHH-Fc antibody (Fc fusion)
chain: EVQLVESGGGVVQPGGSLRLSCAASGSTWTTYAVRWYRQAPGKQREWVAFISVDGSTNYADSVKGRFTISRDNAKNTVYLQMNSLRAEDTADYICRVGGQYWGQGTMVTVSSEPKSSDKTHTCPPCPAPEEFGGPSVFLFPPKPKDTLMISRTPEVTCVVVAVSHEDPEVKFNWYVDGVEVHNAKTKPREEQYNSTYRVVSVLTVLHQDWLNGKEYKCKVSNKALPAPIEKTISKAKGQPREPQVYTLPPSREEMTKNQVSLTCLVKGFYPSDIAVEWESNGQPENNYKTTPPVLDSDGSFFLYSKLTVDKSRWQQGNVFSCSVMHEALHNHYTQKSLSLSPGK
B3: VHH12-05 humanized VHH-Fc antibody (Fc fusion)
chain: EVQLVESGGGLVQPGGSLRLSCAASGITFSSYAMGWYRQAPGKQRELVAAINRFGLTNYVDSVKGRFTISRVNAKNSLYLQMNSLRAEDTAVYYCNTGGVYSHPDYYTGTYWGQGTMVTVSSEPKSSDKTHTCPPCPAPEEFGGPSVFLFPPKPKDTLMISRTPEVTCVVVAVSHEDPEVKFNWYVDGVEVHNAKTKPREEQYNSTYRVVSVLTVLHQDWLNGKEYKCKVSNKALPAPIEKTISKAKGQPREPQVYTLPPSREEMTKNQVSLTCLVKGFYPSDIAVEWESNGQPENNYKTTPPVLDSDGSFFLYSKLTVDKSRWQQGNVFSCSVMHEALHNHYTQKSLSLSPGK
B4: VHH12-06 humanized VHH-Fc antibody (Fc fusion)
chain: EVQLVESGGGLVQPGGSLRLSCAASGITFSSYAMGWYRQAPGKQRELVAAINRFGLTNYVDSVKGRFTISRDNAKNSVYLQMNSLRAEDTAVYYCNTGGVYSHPDYYTGTYWGQGTMVTVSSEPKSSDKTHTCPPCPAPEEFGGPSVFLFPPKPKDTLMISRTPEVTCVVVAVSHEDPEVKFNWYVDGVEVHNAKTKPREEQYNSTYRVVSVLTVLHQDWLNGKEYKCKVSNKALPAPIEKTISKAKGQPREPQVYTLPPSREEMTKNQVSLTCLVKGFYPSDIAVEWESNGQPENNYKTTPPVLDSDGSFFLYSKLTVDKSRWQQGNVFSCSVMHEALHNHYTQKSLSLSPGK

What was measured:
[1] = molecular target: T3, CD16 on primary human NK cells (human, UniProt P08637 17-254); experiment: FACS on human NK cells, biotinylated antibody, +10 mg/mL human immunoglobulin
T3 construct: whole, on cells; also called resting NK cells

[2] = molecular target: T4, human CD16a (158V), full length, on cells (human, UniProt P08637 17-254); experiment: cell-based or functional assay
[3] = molecular target: human CD16a (158F), full length, on FlpinCHO cells (human, UniProt P08637 17-254); experiment: FACS on FlpinCHO cells
[4] = molecular target: T4, human CD16a (158V), full length, on …; experiment: FACS on FlpinCHO cells
[5] = molecular target: T3, CD16 on primary human NK cells; experiment: FACS on human NK cells, biotinylated antibody
[6] = molecular target: T1, human CD16b (NA2), full length, on …; experiment: FACS on FlpinCHO cells
Summary of the method: (§1)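 Trypsin-detached FlpinCHO cells expressing full-length CD16b were blocked in PBS+2% BSA and incubated on ice for 1 hour with antibody at varying concentrations. Binding read by flow cytometry as MFI; EC50 from curve fitting.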

[7] = molecular target: T2, human CD16b (NA1), full length, on …; experiment: FACS on FlpinCHO cells
Summary of the method: as §1

Human CD16a (158F)-his = molecular target: T5, Human CD16a (158F)-his (human); experiment: SPR (Biacore), antibody captured on Protein A
T5 construct: entry holds ECD, AVI tag, linker and His tag
Summary of the method: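 Protein A–captured antibody was probed with CD16-his ECD in HBS-EP+ at 25 °C: five 2-fold dilutions from 200 nM, 240 s at 30 μL/min, dissociation up to 600 s. Glycine pH 1.5 regenerated the chip. Apparent KD came from a double-referenced 1:1 Langmuir fit.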

[8] = molecular target: T6, cynomolgus monkey CD16, full length, on FlpinCHO cells (cynomolgus monkey, UniProt Q8SPW2 17-254); experiment: FACS on FlpinCHO cells
T6 construct: also called FlpinCHO-cyno CD16; Flipin CHO-cyno CD16
Description: The required cells were scale-up cultured in a T-75 cell culture flask to the logarithmic growth phase. The medium was aspirated, and the cells were washed twice with a PBS buffer and then digested with trypsin. After the digestion was terminated, the cells were washed twice with the PBS buffer. The cells were counted, and then the cell pellet was resuspended with a [PBS+2% (w/w) BSA] blocking solution to 2×10⁶ cells/ml, and added to a 96-well FACS reaction plate at 50 μl/well. […] 50 μl/well of the antibody to be detected was added at different concentrations, and incubated on ice for 1 hour. […] The mixture was centrifuged and washed 5 times with PBS, and FACS (FACS Canto II, purchased from BD Company) was used for detection and result analysis. Data analysis was performed by software (CellQuest) to obtain the mean fluorescence intensity (MFI) of the cells. Then, software (GraphPad Prism8) was used for analysis, data fitting and EC50 value calculation.
Flipin CHO-cyno CD16 cells were subjected to FACS detection and data analysis according to the method of Example 3.1.

T6 sequence (Q8SPW2 other isoform, or with tags, fused parts or gaps limits assumed): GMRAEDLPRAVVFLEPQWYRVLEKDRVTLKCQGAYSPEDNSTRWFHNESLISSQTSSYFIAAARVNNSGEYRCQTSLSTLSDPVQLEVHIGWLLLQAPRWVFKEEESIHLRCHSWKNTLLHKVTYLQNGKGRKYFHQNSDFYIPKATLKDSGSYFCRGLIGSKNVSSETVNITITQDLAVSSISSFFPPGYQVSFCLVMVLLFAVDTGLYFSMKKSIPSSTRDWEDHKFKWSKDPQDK

Binder | EC50 [1] [nM] | Maximum mean fluorescence intensity [1] | EC50, activation activity for Jurkat cell [2] [nM] | Maximum fluorescence value [2] | EC50 [3] [nM] | Maximum mean fluorescence intensity [3] | EC50 [4] [nM] | Maximum mean fluorescence intensity [4] | EC50 [5] [nM] | Maximum mean fluorescence intensity [5] | Maximum mean fluorescence intensity [6] | binding result [6] | EC50 [7] [nM] | Maximum mean fluorescence intensity [7] | Kd (Human CD16a (158F)-his) [nM] | koff (Human CD16a (158F)-his) [s⁻¹] | kon (Human CD16a (158F)-his) [M⁻¹ s⁻¹] | EC50 [8] [nM] | Maximum mean fluorescence intensity [8]
B1 | 3.99 | 71400 | 0.02 | 159000 | 0.39 | 9570 | 0.4 | 8890 | 1.34 | 61800 | 437 | no binding (tested: 100 nM) | 0.32 | 53000 | 9.8 | 0.000467 | 47700 |  | 
B2 | 3.66 | 64900 | 0.03 | 176000 | 0.27 | 8890 | 0.23 | 8840 | 1.33 | 53900 | 296 | no binding (tested: 100 nM) | 0.18 | 55200 | 26.9 | 0.00109 | 40300 |  | 
B3 | 2.48 | 72100 | 0.01 | 122000 | 0.35 | 9340 | 0.41 | 8130 | 0.65 | 70400 | 74000 |  | 0.95 | 48200 | 53.9 | 0.0208 | 385000 | 0.55 | 18300
B4 | 1.69 | 38100 | 0.02 | 158000 | 0.6 | 8770 | 0.64 | 7550 | 0.53 | 39300 | 69800 |  | 1.94 | 40600 | 27.6 | 0.0164 | 592000 | 0.83 | 18600
